Assay results as given in the supplement of paper PMC12636428.

System: Saccharomyces cerevisiae
Assay: transcriptional activation domain activity (GFP:mCherry ratio, weighted mean of sorted bins, harmonized to initial dataset scale) (arbitrary fluorescence ratio units); higher = stronger transcriptional activation
Settings: beta-estradiol 1 µM; induction time 4 h
In short: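 Sorting into 8 bins by GFP:mCherry ratio followed a 4-hour hold at 30 °C after cultures were diluted 1:5 into SC with 1 uM beta-estradiol. The yeast diploids carried a GFP reporter and had barcoded protein tiles, fused to an estradiol-inducible synthetic transcription factor, integrated at URA3. Barcodes were then sequenced, and tiles with under 50 reads were removed. Activation activity is the read-weighted mean of bin median fluorescence, averaged across barcodes and linearly mapped onto the initial dataset scale.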

In order of rising “transcriptional activation domain activity” value:
1. VSSSSSSSSRTRKGGGDDEEVEGKERSATENKKKKLGKKGRIAARTKEKAAAA  6920
2. VQLVLVLILVNILINILTFLILSHQGVMHTSCLYLFAYICARLCLGASLSGVW  12800
3. VRVPDFHHADGRDHVRDGEDGHGDGHVRVHAHAQGGGQGRGLARDRVDAHARE  13200
4. VVGGQQKFGTKMVVESDKKCRLILLPRFAETGILVLVNMRTLAVKCVKFGTRG  19300
5. VQALASGDFDAGDGGRTTRPLFRKQKGASLFFVTSVCDTVCLAWTVVVHGHRQ  20600
6. VSVGLLDLLAYCGYGFIGVNATSVVKIFSSDSFWAVYGMFSYTMICLAFFTLR  25800
7. VSSCCPFPLFLFFSFFLSFFLPFLLSSFLSITQSSWPPFHCPCQDTFPFSLPF  28000
8. VTSAKPVQNAGKSRPTSPKPKNVEEREEEKPEVKPVAASPVKATPAPTAAAPV  29000
9. VSFFFFLSFFFPPFFFFSLSFLLSFFLSFLLPFPFFLSFFPFFPGCAAPSRSN  32200
10. VTLVKRVDLFWYFVPNSVCWSCVVERSIALDVAERYLGRETNATPPWIRGLLP  32500
11. VSVSLIFFTCFLSLSLFFCVLVRVSWLSVPVPSIVFFWISFLLFCPFFPFSFF  35700
12. VRWIRVRKHIVMAATLAEPFTESIVLVVIGSSSLKYLVGLPRWLCILVHFFLL  35900
13. VTCFGILCFLLSALYLCIGFDPFINQLLYCGVLWLFQGIYFVLFGMKVALHFQ  36200
14. VVENHKREVQYARYHCLKSWRLTLDVCLKRAFHLVPTVGRHELLISMLQAIIG  37300
15. VSRIRAAVEAQLNHPVNHVLIQHYRSGKDYISEHSDKTIDVVAGSKIVNISIG  37700
16. VQRLHALEKHEYDVCTNLEACLRFGLWAQRGVLSLWHLDLLNGTWMTCLSGVK  39600
17. VTRHHEFLRVHLNEKGEKLLYITHRLDKNGFDVRVFLVAASGFLTDSYILFVT  39700
18. VPYFHGLQPNNHYIHRLVVIFLQFAPSFIILTISYEGLFYFGFCLCLFCWILL  40300
19. VQVVGVLCVGWSLKVWTMHLLGDGGVAVLVKGRTRTVPMAWEEWGAVVEVMRG  40300
20. VTCGLLKVAIDLINHFPLFALVLRVKDPRRLPGSTYFRVIHDKGQTILMLEVD  40300
21. VRVVQLSLSLFIARFVTALVLPFIAIVTKWLVIGRYRPGIFPLWGTYYLRWWF  45000
22. VRLVDIFLLKKYYLINLSLAYLSILLFPPPSPRPLYHLFSIYFFFFLFSSASP  45400
23. VTSLATARLPAARPRTAVLPARATSAVRRVTCRANAPRTAVRVTAATVPSATR  45400
24. VVHLLSPKRLDILWGVNPKGIHIFRMVLFISLLFSYLGRSGSLMLSIARIFTY  45900
25. VREEPTAFFFVVFGLVYETLVTSVPDSDAAAHRTSIVALKALKCLVQEKYCGK  46200
26. VSPQIYYGSRLLGSGGLGLYFLRLPSLPCRTVVEILNTFLFFVMISYLQILLY  46400
27. VRRLLWVTVIFDICFGMLYVLLAIFQCRPISYYWLGWDGEHQGTCLNVNGLAW  46600
28. VSDYSMAQFRFLLKFLLVHGRWNYVRICKYTVGTFWKELLFYLTQALFQRSNG  46600
29. VSTMLCYLNYCRTDVTVPTNSNPIFKLDNSLFLRLILLCNINLLLLLPFGLYL  47100
30. VVFVLIIFSLSILPSAPLVKTGALVVLASLLLMPITQQFFLPSLPIWTYLLYF  47500
31. VRSRALLFVFKYYFFLVYFVFYRNLFARLRSFDQFALVQLLSSFWVCIWYPFS  48400
32. VVAAETAPATEEKPAEETKPAEEAAKAEEKKEEEEIKPVEEGHLNHKAQGLSF  49400
33. VRTVIESNRRLNLAVVSKSQRWRCSKIWIPGLLMHVFNFWCIVYMITFNAVWD  49800
34. VRVVVANMFGLVIIFLFFFMYFDDFSKEILNAVQVSQIWMYLHFPLHLCQVAF  50400
35. VRSLTLEIYFNWLQIIFDSKLQDEFSKLLNYNLITKVDLIINLLESIALRFSD  51000
36. VRQQLKIRLIKLFRRFYPYVNFAYYASGLVYNVLYLFNKTKYYSPWLHLIGVQ  52200
37. VSTCLIKFLALIIEDLHHYFDPFQLKLIGVLVTWYEGAFAKSLFPGELISSEA  52400
38. VSLRSLPYEVGFKQNFNLILNHDASLIKTTVRHLLVYCSLIKAIKLCLIFINK  52500
39. VVALVADPEFQRELAYVLCGQSILVRWPAKILNGLWLYCHLLQQAILPWFIFY  52600
40. VRVRVRVQGREQVQVQVRELHPEQGHPHQEQEPLHLAREHHPELHQQKDQEHL  52900
41. VQFVLDLIVMVGVAGYNTVAQLYFPQLPHHKCSNSAATGSFGLFLICCYLVLF  53700
42. VVEALRLPLKPIQLLSKLFLRRLYEQDQLEEIRGIAKQIKIELYLLVALNVLL  54000
43. VVDHCVSRFSGFTFLFFVLFTAFYMWQIISFVLGVLRLVDMYNFYTHLLKIPD  54300
44. VRVLGHDTLYFLTLYLLKAELFFVFFFFLFFRYMLEKRTVIKFTFFFYPCLFE  54700
45. VSYVSYVLLFIPFFMLRVFYLSIVTFFLCHIWLHRFGFLVWLWILWCTWGWCN  54800
46. VSFRLLVYALVSHVIFGIVLLIDCFYAFPGWHCSLLAFLINFNILFSASIFFC  55200
47. VSLLTVIVPIGITCRMVIWICALGMVISSLCVDTILLNKAYKFSFIYIVVRHT  55300
48. VRVLNQLKLLLYCTLLSPVYAFKPYRNLYYTFLRKNLLGVVGGYNCAGHNLAI  55500
49. VVCRYYHLMMGRTFILLIFTQTLSGLVVYHGVCRSWEVLGCIAHLIKGGIFFF  55800
50. VQASMAADYAISQFRFLHKLLLVQGHWSYARISEMILTFFFKNIFWVFPSLWY  56100
51. VSAARKRWIAMVWLFTWWIPTYLLVCCGMKRQDIRMAWREKVAICIVIFWISA  56200
52. VSYVLFVLMHRSTQPLVQHLLFKLRWLPFPFFITKHYYSWIISAYSFIGYRNL  56400
53. VQRYLCQYQPQITLGFMIFTDMIFFFLDTYLCYVLLNTIFSIARSFYIGSSIW  56700
54. VSASVVYLFFIFIFSLSYPILSCPYLLTHSLTLSILPPFSFPLPFFFLSFFLP  58800
55. VQKNYIMQYGNSLIGHQLKTLVQVNAFHVYDLVDSMQFLLTKVISELATLLWF  59200
56. VQLSFYRNKIFLTILNYCSGLFVLLFFFYSLFRSVILQNSSLLMLYCACWIYI  60600
57. VREWHVDLSFSSFGKTLLRELESLLERVRANWLEEVTVRTIALICSRLLASTI  60800
58. VRDMPQADPGADRAFDASLESSMRKLLDGLAGTSWPAKTSVWVSKLRIACNHV  61200
59. VVDYHTTYRRMIIVCLQSVLGLFRDMVEQFLGVIYTIYVLIRVFVVFPVWVIY  61200
60. VQVDDRSIMVSELAVKLGRNFRAQLAILVLFRVVTSKEHIIRKGWKDIIRIWL  62200
61. VSMMQRILNIVCILPSLLERYDTLVALSETSNLGEVERLWIDCHAFLTNLRIW  62400
62. VTQLIRDARRLLTCVRTGFVFYLGTCMALTCLQMISFCTVLPPILTGYQILWV  63000
63. VRSTRRSLYFWSCLTCSWGIIIHLLFILLLNFKIFENYGALVVVHFTWCIYVV  63300
64. VTHHYGNRVGVRWLTNGIKCYYVPFAIIHRNAIFPTVWSLFPILRNILIRERI  63400
65. VQGTTHGRILIQAGKEIWTQELLLPYVYFILTLNPTIHTWERIKKITGYVFRA  64200
66. VSRLHAKIEYEEEEERFVLVVIGRNGAWVDGVWSGASSRVPLGERSQIQIASR  65500
67. VVFNQIWIYFFIYTMIFICLILVAFYTVLLVLLIHPKKIPHNTRTVLNVYRAR  66100
68. VVCHFVIMMASMSYKIVICVIIGVHADLMVMDARWRSLGSWLYLLCGVIVAPA  67300
69. VSMARGKKTFDRETIVIALERLLAVAPLAFQKVKILLALASCHFDFLSSASAY  68200
70. VRYHVKNSPISGWVYEAKHVSDILATNTLLARIVIAKVQDEQRLVHLLQCLPI  68800
71. VVAYGSGKEEGMKVEGEGEGGKVLRDIIDKLGHALTSTRFAGLPLPHVLAVVK  69700
72. VVKGDEVQIVRGSKKGAEGRVTQVYRKKWVIHVDRVERQKAKEQTVPVPVAAS  70900
73. VPYQKYLYYPLLCFGRFNLYVLSLEFILRDKGPKSNRWHRFYELSGQVFFWFW  71200
74. VRTARQQLMEAAMKTFQLAVGPSEYLPNLALGYQYMACLRWLTHFNIFFHIPL  71400
75. VRLLIRCTRRSLYFWACLCCSWGIILHSLFITLANFNVLQSYGSIVIIHLTWC  74300
76. VTFILALLVRLRRNLPLYSWMHWLHRHIDTLSSYDGISARPAWALFFIRLVWY  74400
77. VSFDFPRSPYPNGSFESFLRDIFARCNLLEVLVFRTKVKSLRGWLKHYTYFAD  75400
78. VSVRQASDGVGCLLEVMAHSRSVNAWTRVLKQLRLAQCVLLNIQQSLSQVWSM  77300
79. VVGISCCFLCMIVILLYFFPLLLFSSLRPLIYLVELLPLTCHIALGGSLYLTL  77600
80. VRTALLKSSHDADIDATVHDQAVREFCSSLNAVTRGVNVLVMTVALLVEIYAA  84400
81. VRYKGGLVGKHFKSLAQVMPYLIYDLVPRSVLDGWVMIGRLVVLLWHTLIEDT  85100
82. VRRVLLMVPDWFIIFGYRWYRALGLLKTVCPWWTSIINSSSVFYSMLWVDPSV  90900
83. VRNNSENASHNNETGPIETELAQTISNEFWTAYNLGWEELMSQPDYKYLFDTQ  117000
